Laboratory results taken from publication doi:10.1101/2020.11.23.394106 (bioRxiv, 2020).
Where no end group is shown, it is not given here.

T1: merlin FERM domain (22-312), GST tag cleaved (human, UniProt P35240 22-312)
T1 sequence: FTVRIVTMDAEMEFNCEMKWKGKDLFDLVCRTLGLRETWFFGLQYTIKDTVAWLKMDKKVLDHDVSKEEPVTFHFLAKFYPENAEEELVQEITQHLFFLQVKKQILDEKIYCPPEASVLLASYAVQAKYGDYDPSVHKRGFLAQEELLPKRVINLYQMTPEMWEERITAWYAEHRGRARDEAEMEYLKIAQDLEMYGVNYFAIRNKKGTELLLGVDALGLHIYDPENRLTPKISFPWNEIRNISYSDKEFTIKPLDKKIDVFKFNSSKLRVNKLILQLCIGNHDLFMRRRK


Legend:
[1] = biological target: T1, merlin FERM domain (22-312), GST tag …; assay: fluorescence polarisation
[2] = biological target: moesin FERM domain, GST tag cleaved (UniProt P26038 2-295); assay: fluorescence polarisation
moesin FERM domain, GST tag cleaved, sequence (P26038 2-295): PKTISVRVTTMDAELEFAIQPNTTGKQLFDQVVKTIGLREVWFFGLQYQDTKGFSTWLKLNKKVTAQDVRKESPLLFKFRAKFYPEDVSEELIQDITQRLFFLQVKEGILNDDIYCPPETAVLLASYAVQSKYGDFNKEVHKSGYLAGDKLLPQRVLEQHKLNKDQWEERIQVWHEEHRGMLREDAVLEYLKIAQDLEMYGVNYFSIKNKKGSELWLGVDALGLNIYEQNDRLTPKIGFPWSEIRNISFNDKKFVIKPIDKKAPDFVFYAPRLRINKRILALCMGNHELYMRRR

| Binder | binding result [1] | Kd [2] | also measured |
| --- | --- | --- | --- |
| FYDLWASDNPLDRPLV (also: FITC label, site not given here) [FITC-labeled NOP53_(192-207)] | binds | – | – |
| YYSVNTFKEHHSTPTI [KIRREL3_(637-652), unlabeled peptide] | – | 90 nM | – |
| TNGYYSVNTFKEHHSTPTI [KIRREL3 peptide with N-terminal extension of three amino acids (634-652), unlabeled] | – | 120 nM | – |
| AEPLPSLEYWPQKSDR (also: FITC label (position not given here)) [FITC-labeled FAM83G_(111-126)] | – | – | Kd [1]: 93000 nM |
| LEFADFYDFRSSYPDH (also: FITC label, site not given here) [FITC-labeled ZNF622_(341-356)] | binds | – | – |
